Assay results from PMC2739136.

How the values were obtained:
Experiment in all cases: pull-down
MBP-TraR A157E, P33905 = target: T1, MBP-TraR A157E, P33905
T1 chain: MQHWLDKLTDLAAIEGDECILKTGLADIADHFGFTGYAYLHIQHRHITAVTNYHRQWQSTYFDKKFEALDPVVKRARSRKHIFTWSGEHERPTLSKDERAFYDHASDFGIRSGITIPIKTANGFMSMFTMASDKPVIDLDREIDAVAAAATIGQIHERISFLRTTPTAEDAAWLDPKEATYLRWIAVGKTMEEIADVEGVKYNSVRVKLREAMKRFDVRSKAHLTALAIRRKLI

MBP-TraR F161K, P33905 = target: T2, MBP-TraR F161K, P33905
T2 chain: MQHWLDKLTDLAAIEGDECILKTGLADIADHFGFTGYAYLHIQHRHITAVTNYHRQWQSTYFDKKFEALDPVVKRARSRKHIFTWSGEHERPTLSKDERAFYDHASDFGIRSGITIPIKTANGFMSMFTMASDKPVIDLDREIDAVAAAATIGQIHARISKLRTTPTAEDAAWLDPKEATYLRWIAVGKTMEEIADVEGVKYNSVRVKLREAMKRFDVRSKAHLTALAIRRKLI

MBP-TraR G153E, P33905 = target: T3, MBP-TraR G153E, P33905
T3 chain: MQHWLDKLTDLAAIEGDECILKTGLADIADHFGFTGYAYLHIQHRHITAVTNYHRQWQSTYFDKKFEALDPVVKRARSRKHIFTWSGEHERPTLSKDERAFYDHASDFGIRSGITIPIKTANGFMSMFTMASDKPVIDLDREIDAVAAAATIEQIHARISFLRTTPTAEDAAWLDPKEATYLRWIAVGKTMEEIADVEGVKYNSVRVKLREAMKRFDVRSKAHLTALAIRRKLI

MBP-TraR V146E, P33905 = target: T4, MBP-TraR V146E, P33905
T4 chain: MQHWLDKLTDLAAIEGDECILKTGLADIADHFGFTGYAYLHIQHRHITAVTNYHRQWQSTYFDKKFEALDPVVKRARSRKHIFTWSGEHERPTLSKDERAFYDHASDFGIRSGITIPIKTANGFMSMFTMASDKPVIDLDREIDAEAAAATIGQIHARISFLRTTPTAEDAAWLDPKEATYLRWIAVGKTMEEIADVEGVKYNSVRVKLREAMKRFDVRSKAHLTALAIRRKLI

MBP-TraR G153A, P33905 = target: T5, MBP-TraR G153A, P33905
T5 chain: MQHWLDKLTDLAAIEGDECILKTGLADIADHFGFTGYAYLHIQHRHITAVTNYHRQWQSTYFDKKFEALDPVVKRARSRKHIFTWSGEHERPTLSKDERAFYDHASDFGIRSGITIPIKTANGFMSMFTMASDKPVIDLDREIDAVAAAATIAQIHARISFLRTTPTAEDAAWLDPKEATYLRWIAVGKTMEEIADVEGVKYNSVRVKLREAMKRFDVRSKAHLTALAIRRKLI

MBP-TraR R206Q, P33905 = target: T6, MBP-TraR R206Q, P33905
T6 chain: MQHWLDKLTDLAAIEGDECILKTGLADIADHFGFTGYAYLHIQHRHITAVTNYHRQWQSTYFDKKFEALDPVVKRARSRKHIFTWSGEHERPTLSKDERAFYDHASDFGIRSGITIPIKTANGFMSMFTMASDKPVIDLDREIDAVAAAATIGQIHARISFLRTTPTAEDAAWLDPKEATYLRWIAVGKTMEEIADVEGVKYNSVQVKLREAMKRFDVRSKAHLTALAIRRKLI

MBP-TraR N122A, P33905 = target: MBP-TraR N122A, P33905
MBP-TraR V146A, P33905 = target: T7, MBP-TraR V146A, P33905
T7 chain: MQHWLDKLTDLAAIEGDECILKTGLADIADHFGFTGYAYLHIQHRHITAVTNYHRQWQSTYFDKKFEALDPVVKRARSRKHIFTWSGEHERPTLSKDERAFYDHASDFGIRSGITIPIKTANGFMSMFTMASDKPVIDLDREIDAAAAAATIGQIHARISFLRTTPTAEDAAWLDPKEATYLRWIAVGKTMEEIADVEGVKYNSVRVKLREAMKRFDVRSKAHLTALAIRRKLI

B1: native TraR (wild type) (protein)
chain: MQHWLDKLTDLAAIEGDECILKTGLADIADHFGFTGYAYLHIQHRHITAVTNYHRQWQSTYFDKKFEALDPVVKRARSRKHIFTWSGEHERPTLSKDERAFYDHASDFGIRSGITIPIKTANGFMSMFTMASDKPVIDLDREIDAVAAAATIGQIHARISFLRTTPTAEDAAWLDPKEATYLRWIAVGKTMEEIADVEGVKYNSVRVKLREAMKRFDVRSKAHLTALAIRRKLI
heterodimer formation (% of wild type) (% of wild type) (MBP-TraR A157E, P33905): 48 | heterodimer formation (% of wild type) (% of wild type) (MBP-TraR F161K, P33905): 39 | heterodimer formation (% of wild type) (% of wild type) (MBP-TraR G153E, P33905): 19 | heterodimer formation (% of wild type) (% of wild type) (MBP-TraR V146E, P33905): 52 | heterodimer formation (% of wild type) (% of wild type) (MBP-TraR G153A, P33905): 61 | heterodimer formation (% of wild type) (% of wild type) (MBP-TraR R206Q, P33905): 71 | heterodimer formation (% of wild type) (% of wild type) (MBP-TraR N122A, P33905): 28 | heterodimer formation (% of wild type) (% of wild type) (MBP-TraR V146A, P33905): 61
